Results reported in publication PMC11826995 (2025).

T1: HSPB6 phosphopeptide (Homo sapiens, UniProt O14558)
T1 chain: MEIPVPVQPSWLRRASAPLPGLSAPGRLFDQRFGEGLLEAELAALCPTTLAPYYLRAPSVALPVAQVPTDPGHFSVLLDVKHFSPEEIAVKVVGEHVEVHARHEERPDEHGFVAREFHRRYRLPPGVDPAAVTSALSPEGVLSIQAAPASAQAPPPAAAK

B1: PPARγ (protein)
chain: MGETLGDSPIDPESDSFTDTLSANISQEMTMVDTEMPFWPTNFGISSVDLSVMEDHSHSFDIKPFTTVDFSSISTPHYEDIPFTRTDPVVADYKYDLKLQEYQSAIKVEPASPPYYSEKTQLYNKPHEEPSNSLMAIECRVCGDKASGFHYGVHACEGCKGFFRRTIRLKLIYDRCDLNCRIHKKSRNKCQYCRFQKCLAVGMSHNAIRFGRMPQAEKEKLLAEISSDIDQLNPESADLRALAKHLYDSYIKSFPLTKAKARAILTGKTTDKSPFVIYDMNSLMMGEDKIKFKHITPLQEQSKEVAIRIFQGCQFRSVEAVQEITEYAKSIPGFVNLDLNDQVTLLKYGVHEIIYTMLASLMNKDGVLISEGQGFMTREFLKSLRKPFGDFMEPKFEFAVKFNALELDDSDLAIFIAVIILSGDRPGLLNVKPIEDIQDNLLQALELQLKLNHPESSQLFAKLLQKMTDLRQIVTEHVQLLQVIKKTETDMSLHPLLQEIYKDLY
B2: 14-3-3σ (protein)
chain: MERASLIQKAKLAEQAERYEDMAAFMKGAVEKGEELSCEERNLLSVAYKNVVGGQRAAWRVLSSIEQKSNEEGSEEKGPEVREYREKVETELQGVCDTVLGLLDSHLIKEAGDAESRVFYLKMKGDYYRYLAEVATGDDKKRIIDSARSAYQEAMDISKKEMPPTNPIRLGLALNFSVFHYEIANSPEEAISLAKTTFDEAMADLHTLSEDSYKDSTLIMQLLRDNLTLWTADNAGEEGGEAPQEPQS
modifications: phosphorylated HSPB6 peptide

Key:
[1] = molecular target: EP300 coregulator peptide (Homo sapiens, UniProt Q09472); assay: fluorescence anisotropy
[2] = molecular target: MED1 DRIP-2 coregulator peptide (Homo sapiens, UniProt Q15648); assay: anisotropy
[3] = molecular target: T1, HSPB6 phosphopeptide; assay: fluorescence anisotropy

EP300 coregulator peptide, sequence (Q09472 2-2414): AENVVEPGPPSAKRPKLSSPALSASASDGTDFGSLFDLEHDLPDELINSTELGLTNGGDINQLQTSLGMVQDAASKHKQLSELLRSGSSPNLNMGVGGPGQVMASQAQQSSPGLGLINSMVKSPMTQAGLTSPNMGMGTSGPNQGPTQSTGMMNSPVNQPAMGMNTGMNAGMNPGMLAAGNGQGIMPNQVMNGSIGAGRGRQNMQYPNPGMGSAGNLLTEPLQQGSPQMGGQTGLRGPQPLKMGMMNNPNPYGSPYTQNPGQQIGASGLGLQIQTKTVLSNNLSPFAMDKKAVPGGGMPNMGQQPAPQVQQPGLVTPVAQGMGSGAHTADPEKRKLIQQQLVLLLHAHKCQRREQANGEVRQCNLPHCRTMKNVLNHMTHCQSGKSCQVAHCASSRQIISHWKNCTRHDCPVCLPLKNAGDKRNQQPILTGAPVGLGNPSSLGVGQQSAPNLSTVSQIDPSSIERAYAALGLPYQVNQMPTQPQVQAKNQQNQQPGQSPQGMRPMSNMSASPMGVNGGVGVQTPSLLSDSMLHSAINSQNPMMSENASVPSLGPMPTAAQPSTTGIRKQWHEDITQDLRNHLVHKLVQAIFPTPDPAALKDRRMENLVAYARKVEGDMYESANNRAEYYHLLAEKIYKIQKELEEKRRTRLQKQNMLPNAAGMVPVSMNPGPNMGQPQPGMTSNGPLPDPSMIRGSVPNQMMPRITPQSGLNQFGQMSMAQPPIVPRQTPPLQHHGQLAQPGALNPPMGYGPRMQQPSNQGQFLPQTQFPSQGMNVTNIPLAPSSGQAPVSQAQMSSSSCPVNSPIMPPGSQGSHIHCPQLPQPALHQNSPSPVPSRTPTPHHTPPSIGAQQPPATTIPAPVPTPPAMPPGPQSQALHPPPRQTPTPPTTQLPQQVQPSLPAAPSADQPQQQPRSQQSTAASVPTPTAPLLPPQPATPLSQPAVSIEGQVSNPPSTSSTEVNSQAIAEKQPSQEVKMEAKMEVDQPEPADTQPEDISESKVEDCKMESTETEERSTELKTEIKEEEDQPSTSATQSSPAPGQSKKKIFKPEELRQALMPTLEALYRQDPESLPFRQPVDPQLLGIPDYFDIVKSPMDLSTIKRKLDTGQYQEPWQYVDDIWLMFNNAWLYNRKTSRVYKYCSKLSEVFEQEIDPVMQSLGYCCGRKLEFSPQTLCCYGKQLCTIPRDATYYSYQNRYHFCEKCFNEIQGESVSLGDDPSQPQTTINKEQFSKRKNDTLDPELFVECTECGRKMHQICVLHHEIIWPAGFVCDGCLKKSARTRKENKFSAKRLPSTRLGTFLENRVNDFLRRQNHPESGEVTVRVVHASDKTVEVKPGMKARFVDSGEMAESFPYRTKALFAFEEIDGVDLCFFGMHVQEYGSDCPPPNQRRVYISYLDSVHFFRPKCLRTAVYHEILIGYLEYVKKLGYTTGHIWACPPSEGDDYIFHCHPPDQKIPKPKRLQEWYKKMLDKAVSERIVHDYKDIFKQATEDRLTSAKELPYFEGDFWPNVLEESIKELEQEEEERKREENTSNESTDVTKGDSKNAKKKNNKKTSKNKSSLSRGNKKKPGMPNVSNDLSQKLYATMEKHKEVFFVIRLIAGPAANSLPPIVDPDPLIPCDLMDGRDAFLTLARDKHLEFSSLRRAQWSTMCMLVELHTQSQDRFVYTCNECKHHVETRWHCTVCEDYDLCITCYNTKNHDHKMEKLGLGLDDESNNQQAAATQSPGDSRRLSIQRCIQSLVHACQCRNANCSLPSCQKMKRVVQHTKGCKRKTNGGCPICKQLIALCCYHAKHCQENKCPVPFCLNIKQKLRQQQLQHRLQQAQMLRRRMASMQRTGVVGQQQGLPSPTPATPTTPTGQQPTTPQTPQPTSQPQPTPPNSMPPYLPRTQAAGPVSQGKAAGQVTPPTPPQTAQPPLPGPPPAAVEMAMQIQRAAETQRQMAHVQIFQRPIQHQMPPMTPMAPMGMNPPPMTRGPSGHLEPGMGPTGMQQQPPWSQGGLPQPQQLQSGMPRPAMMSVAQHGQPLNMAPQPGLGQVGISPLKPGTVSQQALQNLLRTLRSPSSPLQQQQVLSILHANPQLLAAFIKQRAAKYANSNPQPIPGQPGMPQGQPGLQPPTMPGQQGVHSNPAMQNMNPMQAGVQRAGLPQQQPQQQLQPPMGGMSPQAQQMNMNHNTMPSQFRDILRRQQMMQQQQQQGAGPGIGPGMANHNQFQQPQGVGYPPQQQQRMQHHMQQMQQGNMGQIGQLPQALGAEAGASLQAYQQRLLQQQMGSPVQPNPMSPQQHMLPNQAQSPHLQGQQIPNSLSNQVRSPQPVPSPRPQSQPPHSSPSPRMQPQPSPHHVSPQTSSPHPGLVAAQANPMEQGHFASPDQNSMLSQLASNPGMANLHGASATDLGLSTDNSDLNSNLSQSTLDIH
MED1 DRIP-2 coregulator peptide, sequence (Q15648 whole entry): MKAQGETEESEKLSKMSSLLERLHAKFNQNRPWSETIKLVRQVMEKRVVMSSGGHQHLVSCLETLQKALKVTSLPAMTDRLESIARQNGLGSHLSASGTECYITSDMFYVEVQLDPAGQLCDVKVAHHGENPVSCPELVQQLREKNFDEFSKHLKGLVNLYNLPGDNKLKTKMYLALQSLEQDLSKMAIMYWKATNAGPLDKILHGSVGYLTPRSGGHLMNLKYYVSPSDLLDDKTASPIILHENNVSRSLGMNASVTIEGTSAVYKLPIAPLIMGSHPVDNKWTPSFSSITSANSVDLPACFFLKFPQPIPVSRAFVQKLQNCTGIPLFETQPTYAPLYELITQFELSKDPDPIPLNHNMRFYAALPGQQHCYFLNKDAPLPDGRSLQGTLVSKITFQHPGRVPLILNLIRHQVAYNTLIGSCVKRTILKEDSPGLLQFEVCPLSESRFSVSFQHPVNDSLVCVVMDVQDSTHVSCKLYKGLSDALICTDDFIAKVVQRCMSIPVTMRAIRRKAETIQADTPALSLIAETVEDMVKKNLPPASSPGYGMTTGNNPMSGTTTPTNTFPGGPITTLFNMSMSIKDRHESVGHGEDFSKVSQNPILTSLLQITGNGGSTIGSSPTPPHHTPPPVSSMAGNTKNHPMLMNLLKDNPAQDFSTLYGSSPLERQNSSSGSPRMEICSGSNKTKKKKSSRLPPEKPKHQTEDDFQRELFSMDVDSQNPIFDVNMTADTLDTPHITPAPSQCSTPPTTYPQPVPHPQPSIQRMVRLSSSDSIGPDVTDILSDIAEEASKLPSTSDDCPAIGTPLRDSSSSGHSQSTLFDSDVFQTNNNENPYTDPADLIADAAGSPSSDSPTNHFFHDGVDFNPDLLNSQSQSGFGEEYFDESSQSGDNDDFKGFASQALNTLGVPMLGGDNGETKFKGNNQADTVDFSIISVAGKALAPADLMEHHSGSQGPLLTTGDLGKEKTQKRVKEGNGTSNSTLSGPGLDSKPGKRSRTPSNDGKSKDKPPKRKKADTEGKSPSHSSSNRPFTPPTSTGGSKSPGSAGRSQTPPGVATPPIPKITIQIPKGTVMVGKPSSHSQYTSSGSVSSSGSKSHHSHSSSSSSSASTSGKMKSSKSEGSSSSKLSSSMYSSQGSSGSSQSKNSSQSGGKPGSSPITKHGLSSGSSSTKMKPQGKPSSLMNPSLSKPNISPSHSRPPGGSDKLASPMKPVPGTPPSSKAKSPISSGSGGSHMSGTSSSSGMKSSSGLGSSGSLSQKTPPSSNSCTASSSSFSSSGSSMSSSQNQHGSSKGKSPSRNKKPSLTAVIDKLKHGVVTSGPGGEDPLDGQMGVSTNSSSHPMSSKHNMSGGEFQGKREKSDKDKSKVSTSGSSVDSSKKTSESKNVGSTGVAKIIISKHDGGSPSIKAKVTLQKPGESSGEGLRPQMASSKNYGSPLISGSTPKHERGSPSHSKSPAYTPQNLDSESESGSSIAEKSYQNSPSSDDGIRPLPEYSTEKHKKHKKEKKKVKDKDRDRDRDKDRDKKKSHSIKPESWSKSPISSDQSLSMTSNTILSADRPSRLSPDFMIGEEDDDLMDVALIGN

| Binder | Kd [1] | Kd [2] | Kd [3] |
| --- | --- | --- | --- |
| B1 | > 10 µM | 0.647 µM |  |
| B2 |  |  | 0.99 µM |
